Source: patent US6787329

Tested on: T1, TMR-Val-Pro-Arg-Gly-Lys-TMR
T1 sequence: XPRGX

With trypsin as the substance, how does the average fluorescence ratio w/ trypsin : w/o trypsin, excitation 360 nm, emission 570-585 nm read?
The average fluorescence ratio w/ trypsin : w/o trypsin, excitation 360 nm, emission 570-585 nm was 26 fold.

And the average fluorescence ratio w/ trypsin : w/o trypsin, excitation 522 nm, emission 570-585 nm?
Its average fluorescence ratio w/ trypsin : w/o trypsin, excitation 522 nm, emission 570-585 nm is 28 fold.

What about the average fluorescence ratio w/ trypsin : w/o trypsin, excitation 530 nm, emission 570-585 nm of the same substance?
Its average fluorescence ratio w/ trypsin : w/o trypsin, excitation 530 nm, emission 570-585 nm is 27 fold.

What about the average fluorescence ratio w/ trypsin : w/o trypsin, excitation 553 nm, emission 570-585 nm of the same substance?
Its average fluorescence ratio w/ trypsin : w/o trypsin, excitation 553 nm, emission 570-585 nm is 25 fold.

What about the fluorescence ratio w/ trypsin : w/o trypsin, excitation 360 nm, emission 570 nm of the same substance?
Its fluorescence ratio w/ trypsin : w/o trypsin, excitation 360 nm, emission 570 nm is 27 fold.

What about the fluorescence ratio w/ trypsin : w/o trypsin, excitation 360 nm, emission 571 nm of the same substance?
Its fluorescence ratio w/ trypsin : w/o trypsin, excitation 360 nm, emission 571 nm is 25 fold.

What about the fluorescence ratio w/ trypsin : w/o trypsin, excitation 360 nm, emission 572 nm of the same substance?
Its fluorescence ratio w/ trypsin : w/o trypsin, excitation 360 nm, emission 572 nm is 25 fold.

And the fluorescence ratio w/ trypsin : w/o trypsin, excitation 360 nm, emission 573 nm?
The fluorescence ratio w/ trypsin : w/o trypsin, excitation 360 nm, emission 573 nm was 25 fold.

What about the fluorescence ratio w/ trypsin : w/o trypsin, excitation 360 nm, emission 574 nm of the same substance?
Its fluorescence ratio w/ trypsin : w/o trypsin, excitation 360 nm, emission 574 nm is 27 fold.

And the fluorescence ratio w/ trypsin : w/o trypsin, excitation 360 nm, emission 575 nm?
Its fluorescence ratio w/ trypsin : w/o trypsin, excitation 360 nm, emission 575 nm is 24 fold.

What about the fluorescence ratio w/ trypsin : w/o trypsin, excitation 360 nm, emission 576 nm of the same substance?
The fluorescence ratio w/ trypsin : w/o trypsin, excitation 360 nm, emission 576 nm was 24 fold.

What about the fluorescence ratio w/ trypsin : w/o trypsin, excitation 360 nm, emission 577 nm of the same substance?
Its fluorescence ratio w/ trypsin : w/o trypsin, excitation 360 nm, emission 577 nm is 26 fold.

And the fluorescence ratio w/ trypsin : w/o trypsin, excitation 360 nm, emission 578 nm?
Its fluorescence ratio w/ trypsin : w/o trypsin, excitation 360 nm, emission 578 nm is 26 fold.

What about the fluorescence ratio w/ trypsin : w/o trypsin, excitation 360 nm, emission 579 nm of the same substance?
The fluorescence ratio w/ trypsin : w/o trypsin, excitation 360 nm, emission 579 nm was 25 fold.

What about the fluorescence ratio w/ trypsin : w/o trypsin, excitation 360 nm, emission 580 nm of the same substance?
The fluorescence ratio w/ trypsin : w/o trypsin, excitation 360 nm, emission 580 nm was 27 fold.

And the fluorescence ratio w/ trypsin : w/o trypsin, excitation 360 nm, emission 581 nm?
The fluorescence ratio w/ trypsin : w/o trypsin, excitation 360 nm, emission 581 nm was 27 fold.

What about the fluorescence ratio w/ trypsin : w/o trypsin, excitation 360 nm, emission 582 nm of the same substance?
Its fluorescence ratio w/ trypsin : w/o trypsin, excitation 360 nm, emission 582 nm is 26 fold.

What about the fluorescence ratio w/ trypsin : w/o trypsin, excitation 360 nm, emission 583 nm of the same substance?
The fluorescence ratio w/ trypsin : w/o trypsin, excitation 360 nm, emission 583 nm was 28 fold.

And the fluorescence ratio w/ trypsin : w/o trypsin, excitation 360 nm, emission 584 nm?
The fluorescence ratio w/ trypsin : w/o trypsin, excitation 360 nm, emission 584 nm was 24 fold.

And the fluorescence ratio w/ trypsin : w/o trypsin, excitation 360 nm, emission 585 nm?
Its fluorescence ratio w/ trypsin : w/o trypsin, excitation 360 nm, emission 585 nm is 27 fold.

What about the fluorescence ratio w/ trypsin : w/o trypsin, excitation 522 nm, emission 570 nm of the same substance?
Its fluorescence ratio w/ trypsin : w/o trypsin, excitation 522 nm, emission 570 nm is 29 fold.

And the fluorescence ratio w/ trypsin : w/o trypsin, excitation 522 nm, emission 571 nm?
Its fluorescence ratio w/ trypsin : w/o trypsin, excitation 522 nm, emission 571 nm is 27 fold.

And the fluorescence ratio w/ trypsin : w/o trypsin, excitation 522 nm, emission 572 nm?
Its fluorescence ratio w/ trypsin : w/o trypsin, excitation 522 nm, emission 572 nm is 29 fold.

What about the fluorescence ratio w/ trypsin : w/o trypsin, excitation 522 nm, emission 573 nm of the same substance?
The fluorescence ratio w/ trypsin : w/o trypsin, excitation 522 nm, emission 573 nm was 29 fold.

What about the fluorescence ratio w/ trypsin : w/o trypsin, excitation 522 nm, emission 574 nm of the same substance?
The fluorescence ratio w/ trypsin : w/o trypsin, excitation 522 nm, emission 574 nm was 27 fold.

What about the fluorescence ratio w/ trypsin : w/o trypsin, excitation 522 nm, emission 575 nm of the same substance?
The fluorescence ratio w/ trypsin : w/o trypsin, excitation 522 nm, emission 575 nm was 27 fold.

And the fluorescence ratio w/ trypsin : w/o trypsin, excitation 522 nm, emission 576 nm?
Its fluorescence ratio w/ trypsin : w/o trypsin, excitation 522 nm, emission 576 nm is 29 fold.

What about the fluorescence ratio w/ trypsin : w/o trypsin, excitation 522 nm, emission 577 nm of the same substance?
Its fluorescence ratio w/ trypsin : w/o trypsin, excitation 522 nm, emission 577 nm is 27 fold.

What about the fluorescence ratio w/ trypsin : w/o trypsin, excitation 522 nm, emission 578 nm of the same substance?
Its fluorescence ratio w/ trypsin : w/o trypsin, excitation 522 nm, emission 578 nm is 28 fold.

And the fluorescence ratio w/ trypsin : w/o trypsin, excitation 522 nm, emission 579 nm?
Its fluorescence ratio w/ trypsin : w/o trypsin, excitation 522 nm, emission 579 nm is 27 fold.

What about the fluorescence ratio w/ trypsin : w/o trypsin, excitation 522 nm, emission 580 nm of the same substance?
Its fluorescence ratio w/ trypsin : w/o trypsin, excitation 522 nm, emission 580 nm is 29 fold.

What about the fluorescence ratio w/ trypsin : w/o trypsin, excitation 522 nm, emission 581 nm of the same substance?
Its fluorescence ratio w/ trypsin : w/o trypsin, excitation 522 nm, emission 581 nm is 27 fold.

And the fluorescence ratio w/ trypsin : w/o trypsin, excitation 522 nm, emission 582 nm?
Its fluorescence ratio w/ trypsin : w/o trypsin, excitation 522 nm, emission 582 nm is 29 fold.

And the fluorescence ratio w/ trypsin : w/o trypsin, excitation 522 nm, emission 583 nm?
Its fluorescence ratio w/ trypsin : w/o trypsin, excitation 522 nm, emission 583 nm is 28 fold.

What about the fluorescence ratio w/ trypsin : w/o trypsin, excitation 522 nm, emission 584 nm of the same substance?
Its fluorescence ratio w/ trypsin : w/o trypsin, excitation 522 nm, emission 584 nm is 27 fold.

And the fluorescence ratio w/ trypsin : w/o trypsin, excitation 522 nm, emission 585 nm?
The fluorescence ratio w/ trypsin : w/o trypsin, excitation 522 nm, emission 585 nm was 28 fold.

And the fluorescence ratio w/ trypsin : w/o trypsin, excitation 530 nm, emission 570 nm?
The fluorescence ratio w/ trypsin : w/o trypsin, excitation 530 nm, emission 570 nm was 28 fold.

And the fluorescence ratio w/ trypsin : w/o trypsin, excitation 530 nm, emission 571 nm?
Its fluorescence ratio w/ trypsin : w/o trypsin, excitation 530 nm, emission 571 nm is 28 fold.

And the fluorescence ratio w/ trypsin : w/o trypsin, excitation 530 nm, emission 572 nm?
Its fluorescence ratio w/ trypsin : w/o trypsin, excitation 530 nm, emission 572 nm is 27 fold.

And the fluorescence ratio w/ trypsin : w/o trypsin, excitation 530 nm, emission 573 nm?
Its fluorescence ratio w/ trypsin : w/o trypsin, excitation 530 nm, emission 573 nm is 28 fold.

And the fluorescence ratio w/ trypsin : w/o trypsin, excitation 530 nm, emission 574 nm?
The fluorescence ratio w/ trypsin : w/o trypsin, excitation 530 nm, emission 574 nm was 27 fold.

What about the fluorescence ratio w/ trypsin : w/o trypsin, excitation 530 nm, emission 575 nm of the same substance?
The fluorescence ratio w/ trypsin : w/o trypsin, excitation 530 nm, emission 575 nm was 28 fold.

What about the fluorescence ratio w/ trypsin : w/o trypsin, excitation 530 nm, emission 576 nm of the same substance?
Its fluorescence ratio w/ trypsin : w/o trypsin, excitation 530 nm, emission 576 nm is 27 fold.

What about the fluorescence ratio w/ trypsin : w/o trypsin, excitation 530 nm, emission 577 nm of the same substance?
Its fluorescence ratio w/ trypsin : w/o trypsin, excitation 530 nm, emission 577 nm is 28 fold.

And the fluorescence ratio w/ trypsin : w/o trypsin, excitation 530 nm, emission 578 nm?
The fluorescence ratio w/ trypsin : w/o trypsin, excitation 530 nm, emission 578 nm was 27 fold.

What about the fluorescence ratio w/ trypsin : w/o trypsin, excitation 530 nm, emission 579 nm of the same substance?
Its fluorescence ratio w/ trypsin : w/o trypsin, excitation 530 nm, emission 579 nm is 26 fold.

What about the fluorescence ratio w/ trypsin : w/o trypsin, excitation 530 nm, emission 580 nm of the same substance?
The fluorescence ratio w/ trypsin : w/o trypsin, excitation 530 nm, emission 580 nm was 27 fold.

What about the fluorescence ratio w/ trypsin : w/o trypsin, excitation 530 nm, emission 581 nm of the same substance?
The fluorescence ratio w/ trypsin : w/o trypsin, excitation 530 nm, emission 581 nm was 27 fold.

And the fluorescence ratio w/ trypsin : w/o trypsin, excitation 530 nm, emission 582 nm?
The fluorescence ratio w/ trypsin : w/o trypsin, excitation 530 nm, emission 582 nm was 27 fold.

And the fluorescence ratio w/ trypsin : w/o trypsin, excitation 530 nm, emission 583 nm?
Its fluorescence ratio w/ trypsin : w/o trypsin, excitation 530 nm, emission 583 nm is 27 fold.

And the fluorescence ratio w/ trypsin : w/o trypsin, excitation 530 nm, emission 584 nm?
Its fluorescence ratio w/ trypsin : w/o trypsin, excitation 530 nm, emission 584 nm is 27 fold.

What about the fluorescence ratio w/ trypsin : w/o trypsin, excitation 530 nm, emission 585 nm of the same substance?
Its fluorescence ratio w/ trypsin : w/o trypsin, excitation 530 nm, emission 585 nm is 27 fold.

And the fluorescence ratio w/ trypsin : w/o trypsin, excitation 553 nm, emission 570 nm?
Its fluorescence ratio w/ trypsin : w/o trypsin, excitation 553 nm, emission 570 nm is 25 fold.

And the fluorescence ratio w/ trypsin : w/o trypsin, excitation 553 nm, emission 571 nm?
The fluorescence ratio w/ trypsin : w/o trypsin, excitation 553 nm, emission 571 nm was 25 fold.

What about the fluorescence ratio w/ trypsin : w/o trypsin, excitation 553 nm, emission 572 nm of the same substance?
Its fluorescence ratio w/ trypsin : w/o trypsin, excitation 553 nm, emission 572 nm is 25 fold.

What about the fluorescence ratio w/ trypsin : w/o trypsin, excitation 553 nm, emission 573 nm of the same substance?
The fluorescence ratio w/ trypsin : w/o trypsin, excitation 553 nm, emission 573 nm was 25 fold.

What about the fluorescence ratio w/ trypsin : w/o trypsin, excitation 553 nm, emission 574 nm of the same substance?
Its fluorescence ratio w/ trypsin : w/o trypsin, excitation 553 nm, emission 574 nm is 25 fold.

And the fluorescence ratio w/ trypsin : w/o trypsin, excitation 553 nm, emission 575 nm?
The fluorescence ratio w/ trypsin : w/o trypsin, excitation 553 nm, emission 575 nm was 24 fold.

What about the fluorescence ratio w/ trypsin : w/o trypsin, excitation 553 nm, emission 576 nm of the same substance?
Its fluorescence ratio w/ trypsin : w/o trypsin, excitation 553 nm, emission 576 nm is 25 fold.

And the fluorescence ratio w/ trypsin : w/o trypsin, excitation 553 nm, emission 577 nm?
The fluorescence ratio w/ trypsin : w/o trypsin, excitation 553 nm, emission 577 nm was 25 fold.

And the fluorescence ratio w/ trypsin : w/o trypsin, excitation 553 nm, emission 578 nm?
The fluorescence ratio w/ trypsin : w/o trypsin, excitation 553 nm, emission 578 nm was 25 fold.

And the fluorescence ratio w/ trypsin : w/o trypsin, excitation 553 nm, emission 579 nm?
The fluorescence ratio w/ trypsin : w/o trypsin, excitation 553 nm, emission 579 nm was 24 fold.

And the fluorescence ratio w/ trypsin : w/o trypsin, excitation 553 nm, emission 580 nm?
Its fluorescence ratio w/ trypsin : w/o trypsin, excitation 553 nm, emission 580 nm is 25 fold.

And the fluorescence ratio w/ trypsin : w/o trypsin, excitation 553 nm, emission 581 nm?
Its fluorescence ratio w/ trypsin : w/o trypsin, excitation 553 nm, emission 581 nm is 24 fold.

What about the fluorescence ratio w/ trypsin : w/o trypsin, excitation 553 nm, emission 582 nm of the same substance?
The fluorescence ratio w/ trypsin : w/o trypsin, excitation 553 nm, emission 582 nm was 25 fold.

What about the fluorescence ratio w/ trypsin : w/o trypsin, excitation 553 nm, emission 583 nm of the same substance?
Its fluorescence ratio w/ trypsin : w/o trypsin, excitation 553 nm, emission 583 nm is 24 fold.

What about the fluorescence ratio w/ trypsin : w/o trypsin, excitation 553 nm, emission 584 nm of the same substance?
The fluorescence ratio w/ trypsin : w/o trypsin, excitation 553 nm, emission 584 nm was 25 fold.

And the fluorescence ratio w/ trypsin : w/o trypsin, excitation 553 nm, emission 585 nm?
The fluorescence ratio w/ trypsin : w/o trypsin, excitation 553 nm, emission 585 nm was 25 fold.

For “trypsin-like enzyme of Vibrio parahaemolyticus”, which “increase in fluorescence on cleavage of the substrate” value is on record?
Its value is “Cleavage by the trypsin-like enzyme produced an increase in fluorescence”.
